Laboratory results published in the supplement of paper PMC9170038.

Tested on: MS2 coat protein
Test: apparent KD of MS2 coat protein; designed switch direction (-1 OFF switch, 1 ON switch): 1; higher = weaker reporter binding
Method in brief: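 For each design, the apparent KD is the median over clusters of curves fitted to normalised cluster fluorescence. Clusters held RNA switches with common flanks, transcribed on Illumina chips by stalled E. coli RNA polymerase. These were titrated with SNAP-549-labelled MS2 coat protein, doubling from 0.7 or 1.5 nM to 3 µM, without input, with 200 uM small-molecule ligand, or with an oligonucleotide input.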

[1] = input ligand: microRNA oligo, concentration not stated
[2] = Eterna round: R95, input ligand: FMN 200 uM
[3] = Eterna round: R95, input ligand: microRNA oligo, concentration not stated
[4] = Eterna round: R95, input ligand: none

Sequence	apparent KD of MS2 coat protein (input ligand: FMN 200 uM) [µM]	apparent KD of MS2 coat protein [1] [µM]	apparent KD of MS2 coat protein (input ligand: none) [µM]	apparent KD of MS2 coat protein [2] [µM]	apparent KD of MS2 coat protein [3] [µM]	apparent KD of MS2 coat protein [4] [µM]
GUGGUCAGACAUGAGGAUCACCCAUGUGGAAUAAAUAACGACUAGGAUAUAUAAUAUAGGAUAUAAUAGAAGGAGUGAUUGGUG (Eterna round: R96, puzzle: Same State NG 3)	0.0723	0.0495	0.0588			
GUGGUCAGACAUGAGGAUCACCCAUGUGGAAUAAAUAACGGACAGGAUAUUGAAUAUAGGAUAUACAAGAAGGGUUGAUUGGUG (Eterna round: R96, puzzle: Same State NG 3)	0.0836	0.0477	0.0739			
GUGGUCAGACAUGAGGAUCACCCAUGUGGAAUAAAUAAGGAAGAGGAUAUCGAAUAUAGGAUAUACGAGAAGGUUUGGUUGGUG (Eterna round: R96, puzzle: Same State NG 3)	0.117	0.0775	0.0946			
GUGGUCAGACAUGAGGAUCACCCAUGUGGAAUAAAUAAGGGUUAGGAUAUCGAAUAUAGGAUAUACGAGAAGGGAUGGUUGGUG (Eterna round: R96, puzzle: Same State NG 3)	0.135	0.0953	0.109			
GUGGUCAGACAUGAGGAUCACCCAUGUGGAAUAAAUAAGGUUUAGGAUAUGGAAUAUAGGAUAUACCAGAAGGAAGGGUUGGUG (Eterna round: R96, puzzle: Same State NG 3)		0.0952				
GUGGUCCUCACAGGAUAUCAGCGGCCUUCACGCUGAGAAGGGUGACUGGGCUACAAGGCUAUAGACAUGAGGAUCACCCAUGUA [Direbe] (Eterna round: R96, puzzle: Same State NG 1)	0.194	0.11	0.194			
GUUAAACAUGAGGAUCACCCAUGUCAAUGUAGUCGAGGAUAUGGGCAGCUAUGAGGCGUACUAGAAGGCGAUGAGU [Mat - Same State 1 - Mod of JL - D14] (puzzle: Same State 1)				0.0386	0.133	0.15
GUUAAACAUGAGGAUCACCCAUGUCAAUGUAGUCGAGGAUAUGGGUAGCUAUGAGGCGUACUAGAAGGCGAGGAGU [Mat - Same State 1 - Mod of JL - D16] (puzzle: Same State 1)				0.194	0.0571	0.164
GUUACAUGAGGAUCACCCAUGUAUGUGUGGGAGUAAGUGUCUUAGGAUAUCUAGUAUUCAAUUUAAGAGAAGGAAGAUUGUUGU [JMF's solution 58] (Eterna round: R96, puzzle: Same State NG 3)	0.109	0.0642	0.0939			
GUUACAUGAGGAUCACCCAUGUAUGUGUGGGAGUAAGUGUCUUAGGAUAUCUAGUAUUUAAUUAAAGAGAAGGAAGAUUGUUGU [JMF's solution 66] (Eterna round: R96, puzzle: Same State NG 3)	0.126	0.0746	0.116			
GUUACAUGAGGAUCACCCAUGUAUGUGUGGGAGUAAGUGUCUUAGGAUAUCUAUAAUUUAAAUUAAGAGAAGGAAGAUUGUUGU [JMF's solution 10] (Eterna round: R96, puzzle: Same State NG 3)	0.121	0.0694	0.115			
GUUACAUGAGGAUCACCCAUGUAUGUGUGGGAGUAAGUGUCUUAGGAUAUCUAUCAUUUGAUUUAAGAGAAGGAAGAUUGUUGU [JMF's solution 94] (Eterna round: R96, puzzle: Same State NG 3)	0.116	0.0961	0.115			
GUUACAUGAGGAUCACCCAUGUAUGUGUGGGAGUAAGUGUCUUAGGAUAUCUAUUAUUUAAUUAAAGAGAAGGAAGAUUGUUGU [JMF's solution 25] (Eterna round: R96, puzzle: Same State NG 3)	0.115	0.0812	0.102			
GUUACAUGAGGAUCACCCAUGUAUGUGUGGGAGUAAGUGUCUUAGGAUAUCUAUUAUUUAAUUGAAGAGAAGGAAGAUUGUUGU [JMF's solution 26] (Eterna round: R96, puzzle: Same State NG 3)	0.16	0.095	0.112			
GUUACAUGAGGAUCACCCAUGUAUGUGUGGGAGUAAGUGUCUUAGGAUAUCUAUUGUUUAAAUUAAGAGAAGGAAGAUUGUUGU [JMF's solution 13] (Eterna round: R96, puzzle: Same State NG 3)	0.102	0.0843	0.117			
GUUACAUGAGGAUCACCCAUGUAUGUGUGGGAGUAAGUGUCUUAGGAUAUCUGUUAUCUAAUUUAAGAGAAGGAAGAUUGUUGU [JMF's solution 35] (Eterna round: R96, puzzle: Same State NG 3)	0.162	0.0534	0.0872			
GUUACAUGAGGAUCACCCAUGUAUGUGUGGGAGUAAGUGUCUUAGGAUAUCUGUUAUGUAAUUUAAGAGAAGGAAGAUUGUUGU [JMF's solution 34] (Eterna round: R96, puzzle: Same State NG 3)	0.282	0.3	0.296			
GUUACAUGAGGAUCACCCAUGUGUGUGUGGGAGUAAGUGUCUUAGGAUAUCUAUGAUUUAAGUUAAGAGAAGGAAGAUUGUUGU [SS-NG3-LRO01] (Eterna round: R96, puzzle: Same State NG 3)	0.479	0.261	0.395			
GUUAGGAAUCUAGCAAACAUGAGGAUCACCCAUGUUAGUGGGAAGGAUAUGGUACAGAAACUGUACCAGAAGGUCUUAUUGUUU [Omei SS(NG) 3 AV9] (Eterna round: R96, puzzle: Same State NG 3)	0.58	0.403	0.439			
GUUAUACAUGAGGAUCACCCAUGUCAAUGUAGUCGAGGAUAUGGGCAGCUAUGAGGCGUACUAGAAGGCGAAGAGG [JL-ss1-3.11 ViennaUCT mod] (puzzle: Same State 1)				0.0816	0.234	0.197
GUUAUACAUGAGGAUCACCCAUGUCAAUGUAGUCGAGGAUAUGGGUAGCUAUGAGGCGUACUAGAAGGCGAGGAGU [JL-ss1-3.16 ViennaUCT mod] (Eterna round: R96, puzzle: Same State 1)	0.503	0.246	0.477			
GUUAUACAUGAGGAUCACCCAUGUCAAUGUAGUCGAGGAUAUGGGUAGCUAUGAGGCGUACUAGAAGGCGAGGAGU [JL-ss1-3.16 ViennaUCT mod] (puzzle: Same State 1)					0.0904	
GUUCCAAGGUGAGGAUAUGCAGAGGAUCACCCUGUAGAAGGCAUCAGGUGAGGAUAUGCAGAGGAUCACCCUGUAGAAGGCAUC [pwkr ssNG DX.10] (Eterna round: R96, puzzle: Same State NG 1)	0.105	0.18	0.295			
